Experimental data from the DeepSol protein solubility set.

Test: soluble on expression in E. coli; label from the status in PepcDB or PDB records

| Sequence | soluble on expression in E. coli |
| --- | --- |
| MAHHHHHHMATVYTSVPGKDFAKGVTLDEANRIVRVDAGLPLLSALQVGMIVRSIGGVPVGDGRCEQARHHSNRSQVLVVLGAPPKDEFDLCSDDDDAANLKPPSTLPPLPPEFNNSVAQNSSGVVYEATVKCGEGGCVIIMCEGANPALAITLAAEKAKAEVMYIDTVARMKTRQTLENAGEVLKKSLEKGLWIYVEQATKSITLLRQISDCIMEVRAAGKMHAQSRVLLMCEPHPHFPEALMRGSVTLRSRLQNNNMAEVDIREDLSESAHRKQAIHGDDVASSETAAKPEVTKTRKKVRISNQVNIVHLEKSTFMEMSASAQPPLESGTSHDGISRVAKYSFGSNENLISLSYVRDHRFAIGTNSGYVVLIDRNGLPLIQFRPHKACIWDVSFSSQFDFSTACEDGTSVIYKYSLANQELTTVSVASFQNDVFAVTYANPNDVNSGVLSGGLSATVCVLHSDRQNSSFIACRTSIQAMCATQMNQVIVGGGTGACTLIDTNHCVVTDITHAHNKKVPAVGTHGNVAVTGGFDCVLRLWDVRNGFHLTSQRQLNEVITAVAMNERYISACSGSSLYVWDPRKMDRTLAVKANAWKDLTRGLVLDGSTIVTASVDGVARIWEVS | not soluble |
| MGSDKIHHHHHHMSLVRLQDVSVRFDNTQILREAFFRLEPRDRVGLIGKNGSGKTTMLQLILDRITPESGTVTVEPGTRIGYFSQFSELNGASTITDVLDGLFSEIKAVEAELASIDTAIAGDPAGAELDRLIARQAELFEDMDRLDGWDYPRRIDKVLTTLGFSDAHRVCAIDELSGGWRNRAALAKILLEDPDVLLLDEPTNFLDVAGVEWLESWFRDFKGAAIIVSHDRKFLDAVVTRIIEVENFHLHEYPGNFGEYIVQKQFRLKSLEQQFVHESELLAFEAEGIADRREAAKAASRGLGNQLAKIKKSRTPRPVDQIVTEIYGGLHVKDVLCRVEGLGKSYGDKALFTGLGFEIRRGNRIVVLGANGSGKSTLLKVLTGEEEADAGVVSWAKGPGFVSYNRMLEELDDADTVSHAVNALPDSLAFSATRKSVNRFLAMFQFSEADLKQKIGNLSGGQKARVAMAQCLLSGASVLLLDEPTNHLDLSSTQVMERALMHFPGAVVVVSHDRFFSEKIANRYLVFGADAALPGEVEVRAA | not soluble |
| MGSDKIHHHHHHAQVKTYKYRVNFRDKAETTYALDKPSAYLSERALERRMKQGLPVDSTDIPVCRSYIDMLVGKGAQLVSKSKWNNTVVVQVSDTSVIDKVAALPFVTAVRKVWTAPDSIPARNANRKKEVTNRVTKSNNYYGDAWRQIAVHHGDSLHAAGFRGKGMQIAVIDAGFYNADEISVFKGMDLLGTRDFVNSHSDIYAENYHGMKVLSCMAANKPNVLVGTAPEASYWLLRSEDDDTEQPVEEDYWAEALEFADSVGVDVVNTSLGYYEFDDTTMNYRYRDLDGHYSLMSHSASLAADKGLVLVCSAGNSGRGTWKKITPPGDAENVITVGAADRNLVNADFSSVGNTTDGRVKPDVMAVGVASAVAGNDGTVSHANGTSFASPTLCGLVACFWQACPWLTAKQVVEAVRNAGDRKEYPDNIYGYGVPDIWKACQIELEKKK | not soluble |
| MGSDKIHHHHHHMSDEGRHKPTSAPNRVFMMKGMDKLRYQQDFLNIRPIFTAGEQEYLTGLSDRLPLSVLTGSVRNIEEIGIDFVYSSAKLEGNTYNQYDTQALLKLGQTAGGKLYSDAVMLINLRESYRHLLSGLDSPEPFDWLDFLKTTHSLISENLLEKGSGGVVRRDSVTISGTDYTPLSNPQSLDTELKWLLQEAPKIENPFDRAVYLHNNLAYLQYFKDCNKRTARNCMTLSLMRSGFFPCVFSPDSYPAYAEAVVAYYETGDYGLFKKYFISAYENTVNKYGPQPDMDIFRNFSL | not soluble |
| MEDLKHSDALVREQATKKLWRIWFQQKGMYGLEKIDQSQKLLDAGEITEAEVMLTQLIQEQPDFAEAWNRRAFLYYSMGEYQKSLADCQMVIQINPVHFGALHGIGLCYAALGKYAKAIKAFKRALEIQPYSLVNQKLILECTFRLSLEHHHHHH | soluble |
| MISPGEAVLMDGGTTTLEVARQLAGKQLQVVTNSLPIANLLVNQPQIDLMLIGGFLFPKTGVALGKTAVESLKSVHVRRLIISVGGITEDGLYNSNMLLVETEQQMFEAAEEVIVVTDSTKFGHSALAYLCPLDRVDHIVVDDGITEEWKDVIHKAGIELTVVET | not soluble |
| MVEISKRIISTFGKTNAHFKLITENDRVLVGLSGGKDSLLLATLLARLARHAPFKFEFKALTVDYGIGEDFSYLQNYCAENGIPHEVFKTNIMEVMQEKRRENSSYCSFCSRLRRGALYSKALEGGYNKLALGHHLDDAAESFFMNFSYNGAIRSMPPIYRAYNGLWVIRPLIWLRERQMVDFVLKNNLQTPLCNC | not soluble |
| MSEAESVVIKGGNKDKILPLEAEEKKPIKEEKNKAVILSNWIIKYAPIVYFHPDEKCFPITVEEFLECTDVMNEKNEKFCDGKEILSGSFKDALGNQKFYLKITDTSVREGNLNSAKCYVYVRKRNKGRYLDLQYFFFYGYNGPTINIHLNKNKKNYSTSNIGENYGNWEHVTVVIDSTDGSILGAIFDQHGKSCFYDIDQLEYEKGHIVVYSALSSHASYPSAGKSVTEYDSQELGVPPVSVGIVKFELHDATDKGRRWDTSLVCQLVSYNITGTEVEEPKWMAFNGRWGKPYDLTDKDISILYQISRLPAGGKVVDSLLWRFIPYSKKNINQANGIKSKDDFNIIILEHHHHHH | not soluble |
| MDSQKFIDLCKKHVVDFANSQLDYTDQKKISESDIYVVWLAKTLQNNKALLSTNLFDGMYYEVTFNGDKNELYFDAYKKWRNIRFDVTEGGDQNG | not soluble |
| MGSDKIHHHHHHRFMRIMMTSVLNNTKTQKVKFWLLKNYLSPKFKETIPKLAEFYKFEFELVEYKWPKWLHKQTEKQRVMWGYKILFLDVLFPLNVDKIIFVDADQVVRADLQELMDFNLNGAPYGYVPFCESRTEMDGFRFWKSGYWKNHLMGRKYHISALYVVDLKAFREFSAGDRLRGRYDSLSADPNSLSNLDQDLPNNMLHEVPIKSLPQEWLWCETWCDDGSKEKAKTIDLCNNPLTKEPKLNSAKRIIKEWTEYDSEISKVLNSADINTPSPSVDRDEL | not soluble |
| MDKIIFQRVTDCEYPSLFSIYKKYLKPTIEEALGWDELYQQQRFNQSYQKEWFDWIMYNGERLGIICTKPDAIRSTIHIHLLIVFEKYQNKGVGTAVMKCYQKHYSDAVTKSCLSAFKVNKSVINFYLSLGYQIVREDEHFVEMERSLCFSGYMGES | not soluble |
| MGSDKIHHHHHHMNLKTTLFNTTYKFKDIKDVLAKANEKKSGDEMAGIAASGARERVAAKTVLADITLEELRNNPVVSYEKDEITRVIQDSVDEEQYKKIKALTVGEFREFLLENDEDKIKEIRDGLTSEMIAAVTKLMSNMDLVYAAQKICNTAKCNTTIGRRGTFSSRLQPNHPTDNPQGIMASLIDGISYGVGDAVIGLNPVADTIESVSDVLKVFNDFTRKWRIPTQNCVLAHITTQMEALKNGVPIDLMFQSIAGSEIANKDFGISVALLDEAYELMKTKKSSKGPNFMYFETGQGTELSSEGNNRADQLVMEARCYGLAKRYKPFLVNTVVGFIGPEYLYDGKQVIRAGLEDHFMGKLTGLSMGVDTCYTNHMKADQNDLENLAMLLLAANCNYLMGIPCGDDVMLMYQSSSYHDIATLREISDKRPIKEFEKRMEELGIMKNGKLTRNAGDPSIFM | not soluble |
| SAGLGANSDVMVKLDDGHLNNSLRSPVQAGVYFRGHIKGGMRPGKKVLVMGIVDHNPKSFAISLTCGDSEDPPADVAIELKVVFTNQQVFRNSCISGESDEENLAFPYFPFVPDQPFRMEIFCQQPCFRVLVDGHHLFDFYHRIQTLSAIDSIKISGDLQITKLG | soluble |
| VTAVPTDSAEKPAVADAGVRSVTRVIDLLELFDAAHPTRSLKELVEGTKLPKTTVVRLVATMCARSVLTSRADGSYSLGPEMLRWVRLAGRTWAPPEEVVDIMRQLSADTGETVNLYIRQGLSRVVVAQCESTATVRSVIPLGVPYPLWAGAAGKILLLAAPELIDDVAADSPHGPEFADQLREKVEDGRERGYQLVHGERELGSSGLSFPLVDSHGTVVAALTLGGPTGRFTEDRTPHYIECTRAAAEEISAIGLPGLD | soluble |
| MNNFILLEEQLIKKSQQKRRTSPSNFKVRFFVLTKASLAYFEDRHGKKRTLKGSIELSRIKCVEIVKSDISIPCHYKYPFQVVHDNYLLYVFAPDRESRQRWVLALKEETRNNNSLVPKYHPNFWMDGKWRCCSQLEKLATGCAQYDPTKNASKKPLPPTPEDNRRPLWEPEETVVIALYDYQTNDPQELALRRNEEYCLLDSSEIHWWRVQDRNGHEGYVPSSYLVEKSPNNLETYEWYNKSISRDKAEKLLLDTGKEGAFMVRDSRTAGTYTVSVFTKAVVSENNPCIKHYHIKETNDNPKRYYVAEKYVFDSIPLLINYHQHNGGGLVTRLRYPVCFGRQKAPVTAGLRYGKWVIDPSELTFVQEIGSGQFGLVHLGYWLNKDKVAIKTIREGAMSEEDFIEEAEVMMKLSHPKLVQLYGVCLEQAPICLVFEFMEHGCLSDYLRTQRGLFAAETLLGMCLDVCEGMAYLEEACVIHRDLAARNCLVGENQVIKVSDFGMTRFVLDDQYTSSTGTKFPVKWASPEVFSFSRYSSKSDVWSFGVLMWEVFSEGKIPYENRSNSEVVEDISTGFRLYKPRLASTHVYQIMNHCWKERPEDRPAFSRLLRQLAEIAESGL | soluble |
| MNELQAYHLSRNQFCPNLFFLAMNNVAQTDTPQQYDLRILRALRRITRSIALHSRQLAAVSHITAPQLMCLRAVIAGGPMTATAISREIHVSPSTVVGILDRLEDKGLIRRERGREDRRIVFVTATEGGRTLAAEAPSPLQKHLADGLNALPELEQATITLALERIVALMEQEGHAVEAAGEGSPPILEMPTGGAPPESGLVV | not soluble |
| MGSDKIHHHHHHMIEPVSEDTILITLAPAIDDTLPARIASLVDSIRRAGFHWLVDMVPSYTTLMVVYDPVLVDFRQVTDKLRPIVHRLSTQGHTAELKSRLVELPVYYSAETGPDLQWLATESGLDCEEVIRRHSSVEYRVHALGFAPGFAFMGQVDPSIAAPRKTTPRKQVPAGSVGIANRQTAVYPQVSPGGWQLIGRCPTRLFDSTNLSLLKVGDRVRFTPISREAFLAAGGELIS | not soluble |
| MAHHHHHHMSSCQNTHAARLHSATSAYAGEPESWMWTPARENGDGWRSPGTGTATSATAEAALHFVWGRVLSVYAVMPLNQTWNVQGVVDAVLPPLPANGGTTAAPSPPAAPAMAPGFQLLVMAAALLSPPATATTAVAAAPSMASLHKLSLMSPADAEPVDVGELSGAFWLAALRRAWPLFQACGVSHEPMTQGSNTNITEEAASSLGGVAVGMAGSGVNLEDLRTIVLSLFLRFADDSAVASAMAAADGDGAKLCGSAIRWAEAMCSDAPATYAQ | not soluble |
| MGSDKIHHHHHHMKKIAVLTSGGDAPGMNAAVRAVVRYGVRQGLEVIGVRRGYSGLIDGDFVKLEYKDVAGITEKGGTILRTSRCEEFKTEEGRELAAKQIKKHGIEGLVVIGGEGSLTGAHLLYEEHKIPVVGIPATIDNDIGLTDMCIGVDTCLNTVMDAVQKLKDTASSHERAFIVEVMGRHSGYIALMAGLVTGAEAIIVPEIPVDYSQLADRILEERRRGKINSIIIVAEGAASAYTVARHLEYRIGYETRITILGHVQRGGSPTAFDRRLALSMGVEAVDALLDGEVDVMIALQGNKFVRVPIMEALSTKKTIDKKLYEIAHMLS | not soluble |
| MLPKSSLKETQQALANAIRLGNADPLNGYAASRLAVYTRLVRNNAFGFIDRCFVEAPLHIEPEYWKNAKENFVQNGNAHSPYFQDIAGEFLLFCQEKEIFDTNILALMDFENTQLLAEVSLAKVPEKFEWNRHSVMQLSGAAYLKSYDVDFLSSDFKQFDDTPIQAIIWRDSDFRIQQQILSELDYWLLSYLQEQPNSLENVLSALNTMVEDSTSIIPLLEQVWMKWVTSEVIYPEQR | not soluble |
